The record followed here is article PMC4227788, “Architecture and ssDNA interaction of the Timeless-Tipin-RPA complex” (Nucleic Acids Research, 2014).

Data set [1] concerns the target T1, Tim-Tipin complex;RPA70/32/14 (RPA70ABC/32D-WH/14) (mouse;mouse, UniProt Q9R1X4;Q91WA1;Q8VEE4;Q99KL9;Q9CQ71 1-1134;1-278;190-623;43-270;1-121, |). The data set can be described thus: SEC; excess DNA; intact complex, 260/280 = 1.20 ± 0.04; 20 mM Hepes pH 7.5, 125 mM NaCl, 2 mM DTT, 0.01 mM zinc acetate (Buffer A); EMSA 15 min RT + 15 min 4 C; FA 15 min 30 C, 10 nM DNA. Conditions: protein: recombinant;recombinant; tags: His (Tim) and His-GST (Tipin), cleaved with 3C;His; copies: 1;1;1;1;1.

The target in data set [2] is T2, Tim-Tipin complex (mouse, UniProt Q9R1X4;Q91WA1 1-1134;1-278).
T2 sequence 1: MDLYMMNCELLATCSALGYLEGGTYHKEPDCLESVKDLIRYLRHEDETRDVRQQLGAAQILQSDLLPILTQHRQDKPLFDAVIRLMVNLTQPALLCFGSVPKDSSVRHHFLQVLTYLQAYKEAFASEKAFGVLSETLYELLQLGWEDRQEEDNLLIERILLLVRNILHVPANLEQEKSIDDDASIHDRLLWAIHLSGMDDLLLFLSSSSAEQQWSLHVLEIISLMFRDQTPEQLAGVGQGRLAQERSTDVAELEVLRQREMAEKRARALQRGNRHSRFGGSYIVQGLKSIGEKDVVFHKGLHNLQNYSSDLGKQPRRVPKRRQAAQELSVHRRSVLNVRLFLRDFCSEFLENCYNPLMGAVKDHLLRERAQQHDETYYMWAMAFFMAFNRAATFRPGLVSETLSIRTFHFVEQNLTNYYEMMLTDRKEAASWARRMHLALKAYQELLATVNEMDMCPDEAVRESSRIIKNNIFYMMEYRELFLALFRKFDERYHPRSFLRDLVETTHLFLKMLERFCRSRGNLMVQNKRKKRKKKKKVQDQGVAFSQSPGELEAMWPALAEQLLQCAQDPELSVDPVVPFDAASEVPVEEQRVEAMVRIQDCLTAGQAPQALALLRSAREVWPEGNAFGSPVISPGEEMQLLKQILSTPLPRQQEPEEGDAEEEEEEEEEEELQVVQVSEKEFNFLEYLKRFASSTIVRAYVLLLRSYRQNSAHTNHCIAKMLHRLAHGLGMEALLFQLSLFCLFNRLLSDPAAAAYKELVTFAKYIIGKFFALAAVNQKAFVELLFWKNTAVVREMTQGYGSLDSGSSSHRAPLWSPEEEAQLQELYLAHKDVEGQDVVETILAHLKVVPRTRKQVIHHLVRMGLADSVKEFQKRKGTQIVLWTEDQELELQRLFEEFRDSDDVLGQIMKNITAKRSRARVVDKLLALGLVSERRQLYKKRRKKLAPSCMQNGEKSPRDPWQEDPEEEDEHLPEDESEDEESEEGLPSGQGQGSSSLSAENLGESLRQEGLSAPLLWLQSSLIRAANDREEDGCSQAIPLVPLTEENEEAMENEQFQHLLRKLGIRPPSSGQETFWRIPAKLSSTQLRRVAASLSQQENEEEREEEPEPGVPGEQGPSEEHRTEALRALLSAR
T2 sequence 2: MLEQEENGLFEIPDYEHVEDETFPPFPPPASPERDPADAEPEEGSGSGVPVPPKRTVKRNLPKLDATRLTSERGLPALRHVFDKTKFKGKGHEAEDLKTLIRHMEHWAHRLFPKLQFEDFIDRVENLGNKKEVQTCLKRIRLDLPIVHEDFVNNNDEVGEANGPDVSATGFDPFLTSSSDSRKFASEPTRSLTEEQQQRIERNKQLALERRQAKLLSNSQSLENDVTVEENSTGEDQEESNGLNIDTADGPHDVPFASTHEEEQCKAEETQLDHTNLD
The data set can be described thus: SEC; excess DNA; partial binding, 260/280 = 0.98 ± 0.14; 20 mM Hepes pH 7.5, 125 mM NaCl, 2 mM DTT, 0.01 mM zinc acetate (Buffer A); EMSA 15 min RT + 15 min 4 C; FA 15 min 30 C, 10 nM DNA. Conditions: protein: recombinant; tags: His (Tim) and His-GST (Tipin), cleaved with 3C; copies: 1;1. For orientation: SEC sorts molecules by how far they enter the pores of the column.

For data set [3], the target named is T3, RPA70/32/14 (RPA70ABC/32D-WH/14) (mouse, UniProt Q8VEE4;Q99KL9;Q9CQ71 190-623;43-270;1-121). The data set can be described thus: SEC; excess DNA 260/280 = 1.57 ± 0.05; substoichiometric 1.32 ± 0.03; 20 mM Hepes pH 7.5, 125 mM NaCl, 2 mM DTT, 0.01 mM zinc acetate (Buffer A); EMSA 15 min RT + 15 min 4 C; FA 15 min 30 C, 10 nM DNA. The conditions noted are these: protein: recombinant; tags: His; copies: 1;1;1.

For data set [4], the target named is T2, Tim-Tipin complex. The data set can be described thus: EMSA; 16 uM protein, 4-64 uM DNA; 20 mM Hepes pH 7.5, 125 mM NaCl, 2 mM DTT, 0.01 mM zinc acetate (Buffer A); EMSA 15 min RT + 15 min 4 C; FA 15 min 30 C, 10 nM DNA. The conditions noted are these: protein: recombinant; tags: His (Tim) and His-GST (Tipin), cleaved with 3C; copies: 1;1; label: 5'-FAM.
Data set [5] has as its target T3, RPA70/32/14 (RPA70ABC/32D-WH/14). The data set can be described thus: EMSA; 1 RPA per DNA; 20 mM Hepes pH 7.5, 125 mM NaCl, 2 mM DTT, 0.01 mM zinc acetate (Buffer A); EMSA 15 min RT + 15 min 4 C; FA 15 min 30 C, 10 nM DNA. The conditions noted are these: protein: recombinant; tags: His; copies: 1;1;1; label: 5'-FAM. A general note: A gel shift assay detects complexes by their altered migration in electrophoresis.

The target is the same in data set [6]. The data set can be described thus: SEC; excess DNA 260/280 = 1.46 ± 0.01; substoichiometric 1.28 ± 0.05; 20 mM Hepes pH 7.5, 125 mM NaCl, 2 mM DTT, 0.01 mM zinc acetate (Buffer A); EMSA 15 min RT + 15 min 4 C; FA 15 min 30 C, 10 nM DNA. The conditions noted are these: protein: recombinant; tags: His; copies: 1;1;1.
Data set [7] concerns the target T1, Tim-Tipin complex;RPA70/32/14 …. The data set can be described thus: SEC; excess DNA; intact complex, 260/280 = 1.11 ± 0.04; 20 mM Hepes pH 7.5, 125 mM NaCl, 2 mM DTT, 0.01 mM zinc acetate (Buffer A); EMSA 15 min RT + 15 min 4 C; FA 15 min 30 C, 10 nM DNA. Conditions: protein: recombinant;recombinant; tags: His (Tim) and His-GST (Tipin), cleaved with 3C;His; copies: 1;1;1;1;1.

For data set [8], the target named is T3, RPA70/32/14 (RPA70ABC/32D-WH/14). The data set can be described thus: SEC; DNA-bound RPA released from Tim-Tipin-RPA mixture, 260/280 = 1.27 ± 0.05 and 1.22 ± 0.04; 20 mM Hepes pH 7.5, 125 mM NaCl, 2 mM DTT, 0.01 mM zinc acetate (Buffer A); EMSA 15 min RT + 15 min 4 C; FA 15 min 30 C, 10 nM DNA. The conditions noted are these: protein: recombinant; tags: His; copies: 1;1;1.

Data set [9] addresses T2, Tim-Tipin complex. The data set can be described thus: SEC; 260/280 = 0.54, excess or substoichiometric DNA; 20 mM Hepes pH 7.5, 125 mM NaCl, 2 mM DTT, 0.01 mM zinc acetate (Buffer A); EMSA 15 min RT + 15 min 4 C; FA 15 min 30 C, 10 nM DNA. Conditions: protein: recombinant; tags: His (Tim) and His-GST (Tipin), cleaved with 3C; copies: 1;1.
For data set [10], the target named is T1, Tim-Tipin complex;RPA70/32/14 …. The data set can be described thus: EMSA; excess DNA; partial dissociation; 20 mM Hepes pH 7.5, 125 mM NaCl, 2 mM DTT, 0.01 mM zinc acetate (Buffer A); EMSA 15 min RT + 15 min 4 C; FA 15 min 30 C, 10 nM DNA. Conditions: protein: recombinant;recombinant; tags: His (Tim) and His-GST (Tipin), cleaved with 3C;His; copies: 1;1;1;1;1; label: 5'-FAM.

In data set [11] the target is T3, RPA70/32/14 (RPA70ABC/32D-WH/14). The data set can be described thus: EMSA; 1 RPA with excess DNA, up to 4 RPA at substoichiometric DNA; 20 mM Hepes pH 7.5, 125 mM NaCl, 2 mM DTT, 0.01 mM zinc acetate (Buffer A); EMSA 15 min RT + 15 min 4 C; FA 15 min 30 C, 10 nM DNA. The conditions noted are these: protein: recombinant; tags: His; copies: 1;1;1; label: 5'-FAM.
Data set [12] addresses T2, Tim-Tipin complex. The data set can be described thus: fluorescence anisotropy; Hill n = 2.2 ± 0.1; 30 C; 20 mM Hepes pH 7.5, 125 mM NaCl, 2 mM DTT, 0.01 mM zinc acetate (Buffer A); EMSA 15 min RT + 15 min 4 C; FA 15 min 30 C, 10 nM DNA. The conditions noted are these: protein: recombinant; tags: His (Tim) and His-GST (Tipin), cleaved with 3C; copies: 1;1; label: 5'-FAM. In general terms: In fluorescence polarisation assays a small probe gives low polarisation when free and higher when bound to something large.

Data set [13] has as its target T4, Tim interacting protein (Tipin, residues 1-278) (mouse, UniProt Q91WA1 1-278).
T4 construct: The Tipin chain of m1, written alone for the pair Tim with Tipin; also called His-GST-Tipin; source: E. coli BL21 (DE3) gold with pRARE, co-expressed with Tim, co-purified
T4 sequence (looked up): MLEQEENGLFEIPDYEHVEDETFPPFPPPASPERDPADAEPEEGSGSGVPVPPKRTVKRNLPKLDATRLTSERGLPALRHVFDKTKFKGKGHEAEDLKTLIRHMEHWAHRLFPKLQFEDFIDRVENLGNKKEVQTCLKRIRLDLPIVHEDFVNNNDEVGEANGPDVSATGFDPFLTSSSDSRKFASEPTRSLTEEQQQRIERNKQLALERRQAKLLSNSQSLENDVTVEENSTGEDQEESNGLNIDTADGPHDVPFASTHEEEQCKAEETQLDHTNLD
The data set can be described thus: SEC; Tim and Tipin co-expressed in E. coli and co-purified (Ni-NTA, Q-sepharose, SEC on Superdex 200 16/60; 20 mM Hepes pH 7.0, 125 mM NaCl, 2 mM DTT); single peak. The conditions noted are these: partners not purified.

T1 sequence (Q8VEE4 190-623, chain 3 of 3): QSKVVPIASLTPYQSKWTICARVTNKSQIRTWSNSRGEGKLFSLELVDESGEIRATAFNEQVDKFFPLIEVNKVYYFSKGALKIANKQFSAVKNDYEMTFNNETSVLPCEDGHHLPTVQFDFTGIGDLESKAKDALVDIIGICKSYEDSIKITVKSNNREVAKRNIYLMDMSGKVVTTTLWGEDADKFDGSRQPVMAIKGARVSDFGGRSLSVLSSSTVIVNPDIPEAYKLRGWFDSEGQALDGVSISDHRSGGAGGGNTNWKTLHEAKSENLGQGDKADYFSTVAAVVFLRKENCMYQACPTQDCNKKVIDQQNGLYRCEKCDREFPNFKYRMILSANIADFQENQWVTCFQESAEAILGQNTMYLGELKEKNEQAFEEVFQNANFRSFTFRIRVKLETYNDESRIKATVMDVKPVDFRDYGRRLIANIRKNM
T1 sequence (chain, as listed by the source |, chain 4 of 3): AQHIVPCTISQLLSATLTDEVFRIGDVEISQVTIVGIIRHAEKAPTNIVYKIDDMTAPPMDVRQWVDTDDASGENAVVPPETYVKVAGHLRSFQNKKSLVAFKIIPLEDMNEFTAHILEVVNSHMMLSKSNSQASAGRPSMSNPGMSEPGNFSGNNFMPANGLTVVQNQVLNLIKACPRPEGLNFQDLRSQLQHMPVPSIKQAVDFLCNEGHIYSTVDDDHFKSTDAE
T1 sequence (Q9CQ71 whole entry, chain 5 of 3): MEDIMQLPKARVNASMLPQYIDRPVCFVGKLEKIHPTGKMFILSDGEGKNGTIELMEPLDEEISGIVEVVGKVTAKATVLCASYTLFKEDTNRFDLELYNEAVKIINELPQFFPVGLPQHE
T3 sequence (Q8VEE4 190-623, chain 1 of 3): as the sequence (Q8VEE4 190-623, chain 3 of 3) above
T3 sequence (chain, as listed by the source, chain 2 of 3): as the sequence (chain, as listed by the source |, chain 4 of 3) above
T3 sequence (Q9CQ71 whole entry, chain 3 of 3): as the sequence (Q9CQ71 whole entry, chain 5 of 3) above

B1: 60 nt ssDNA (SEC) (ssDNA)
DNA: CAGACCGCCACCGACTGCTTAGATATTTAAGTTTTCTAATTTTTCATTGAAAGCATTAAG
As for B1, the binding result in [1], in data set [2] and in data set [3] was “binds” in each case.

B2: 14 nt FAM ssDNA (ssDNA)
DNA: GACGGCATCCCTAA
On to B2, for which the binding result in data set [4] is on record as “no binding”; in data set [5] it was “binds”.

B3: 31 nt ssDNA (SEC) (ssDNA)
DNA: CGGGATCCCAGCCAGCGATGTCTCAAGCTGC
Regarding B3, the binding result in data set [6] and in data set [7] was “binds” in each case.

B4: 14 nt ssDNA (SEC) (ssDNA)
DNA: AGAAGAGCCAAAAC
In the case of B4, the binding result in data set [8] is given as “binds”; in data set [9], “no binding”.

B5: 60 nt FAM ssDNA (ssDNA)
DNA: ACGCTGCCGAATTCTACCAGTGCCTTGCTAGGACATCTTTGCCCACCTGCAGGTTCACCC
Usually Kd stands for the constant that tells how readily two partners part at equilibrium. On to B5, for which the binding result in [10] and in data set [11] was “binds” in each case. The Kd in data set [12] came to 290 ± 10 nM.

B6: Timeless (Tim, residues 1-1134) (domain or fragment, mouse, UniProt Q9R1X4 1-1134, looked up)
chain: MDLYMMNCELLATCSALGYLEGGTYHKEPDCLESVKDLIRYLRHEDETRDVRQQLGAAQILQSDLLPILTQHRQDKPLFDAVIRLMVNLTQPALLCFGSVPKDSSVRHHFLQVLTYLQAYKEAFASEKAFGVLSETLYELLQLGWEDRQEEDNLLIERILLLVRNILHVPANLEQEKSIDDDASIHDRLLWAIHLSGMDDLLLFLSSSSAEQQWSLHVLEIISLMFRDQTPEQLAGVGQGRLAQERSTDVAELEVLRQREMAEKRARALQRGNRHSRFGGSYIVQGLKSIGEKDVVFHKGLHNLQNYSSDLGKQPRRVPKRRQAAQELSVHRRSVLNVRLFLRDFCSEFLENCYNPLMGAVKDHLLRERAQQHDETYYMWAMAFFMAFNRAATFRPGLVSETLSIRTFHFVEQNLTNYYEMMLTDRKEAASWARRMHLALKAYQELLATVNEMDMCPDEAVRESSRIIKNNIFYMMEYRELFLALFRKFDERYHPRSFLRDLVETTHLFLKMLERFCRSRGNLMVQNKRKKRKKKKKVQDQGVAFSQSPGELEAMWPALAEQLLQCAQDPELSVDPVVPFDAASEVPVEEQRVEAMVRIQDCLTAGQAPQALALLRSAREVWPEGNAFGSPVISPGEEMQLLKQILSTPLPRQQEPEEGDAEEEEEEEEEEELQVVQVSEKEFNFLEYLKRFASSTIVRAYVLLLRSYRQNSAHTNHCIAKMLHRLAHGLGMEALLFQLSLFCLFNRLLSDPAAAAYKELVTFAKYIIGKFFALAAVNQKAFVELLFWKNTAVVREMTQGYGSLDSGSSSHRAPLWSPEEEAQLQELYLAHKDVEGQDVVETILAHLKVVPRTRKQVIHHLVRMGLADSVKEFQKRKGTQIVLWTEDQELELQRLFEEFRDSDDVLGQIMKNITAKRSRARVVDKLLALGLVSERRQLYKKRRKKLAPSCMQNGEKSPRDPWQEDPEEEDEHLPEDESEDEESEEGLPSGQGQGSSSLSAENLGESLRQEGLSAPLLWLQSSLIRAANDREEDGCSQAIPLVPLTEENEEAMENEQFQHLLRKLGIRPPSSGQETFWRIPAKLSSTQLRRVAASLSQQENEEEREEEPEPGVPGEQGPSEEHRTEALRALLSAR
notes: Timeless (Tim), mouse, AB019001, aa 1-1134; The Tim chain of m1, written alone for the pair Tim with Tipin; also called mTim; His-Tim; source: E. coli BL21 (DE3) gold with pRARE, co-expressed with Tipin, co-purified
In general, stoichiometry N refers to a count of units in the complex or per binding partner. For B6, the “stoichiometry N” value in data set [13] was 1.
